{"source": "patent US20030180746", "about": "“Polymorphism detection and separation” (published 2003)", "key": {"RecA [1]": {"molecular_target": "T1, RecA (Escherichia coli, UniProt P0A7G6 P0A7G6:2-353)", "T1 sequence (P0A7G6 2-353, one chain of several)": "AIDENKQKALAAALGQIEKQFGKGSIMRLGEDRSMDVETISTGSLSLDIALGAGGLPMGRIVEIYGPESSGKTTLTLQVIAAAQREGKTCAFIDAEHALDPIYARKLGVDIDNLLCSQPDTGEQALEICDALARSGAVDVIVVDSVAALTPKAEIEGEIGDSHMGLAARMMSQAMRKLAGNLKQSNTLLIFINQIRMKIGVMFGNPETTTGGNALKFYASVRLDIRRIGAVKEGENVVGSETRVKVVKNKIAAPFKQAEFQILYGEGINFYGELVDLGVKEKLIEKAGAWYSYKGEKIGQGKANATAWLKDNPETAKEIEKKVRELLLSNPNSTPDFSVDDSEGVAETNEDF", "assay": "EMSA; Y-arm on OligoT/OligoU", "protocol": "(§1) We then add double-stranded nucleic acid target, which is generally ³²P-end-labeled using T4 polynucleotide kinase to facilitate detection of the complex, at a concentration of approximately 20 nM and 10 mM magnesium acetate to a final volume of 10 μl. We incubate this reaction for 10 minutes at 37° C. to allow for synapsis between to the incoming oligonucleotide and the target nucleic acid molecule. We then add the second or “annealing” oligonucleotide in 1 μl to a concentration of 640 nM (calculated for the original 10 μl reaction volume) and incubate for 10 minutes at 37° C. to allow the second oligonucleotide to anneal to the target nucleic acid. We then denature the RecA bound to the oligonucleotide:target complex by cooling the reaction to about 4° C. in an ice bath and adding 1 μl of 10% SDS. The samples are then used immediately or stored at −20° C.\nOligonucleotides used in this example. We use the OligoT/OligoU duplex as the target nucleic acid for these experiments. We use incoming DNA oligonucleotides complementary over a range of lengths to the end of the duplex target as follows: OligoV is a 20-mer with the sequence 5′-[…]-3′ (SEQ ID NO: 10); OligoW is a 25-mer with the sequence 5′-[…]-3′ (SEQ ID NO: 11); OligoX is a 30-mer (SEQ ID NO: 8); OligoY is a 35-mer with the sequence 5′-[…]-3′ (SEQ ID NO: 12); OligoZ is a 40-mer with the sequence 5′-[…]-3′ (SEQ ID NO: 13); and Oligo1 is a 46-mer with the sequence 5′-[…]-3′ (SEQ ID NO: 14). We use annealing DNA oligonucleotides complementary to the end of the duplex target (and to the incoming oligonucleotides) over a range of lengths as follows: Oligo2 is a 20-mer with the sequence 5′-[…]-3′ (SEQ ID NO: 15); Oligo4 is a 25-mer with the sequence 5′-[…]-3′ (SEQ ID NO: 16); Oligo5 is a 30-mer with the sequence 5′-[…]-3′ (SEQ ID NO: 9); Oligo6 is a 35-mer with the sequence 5′-[…]-3′ (SEQ ID NO: 17); Oligo7 is a 40-mer with the sequence 5′-[…]-3′ (SEQ ID NO: 18); and Oligo8 is a 46-mer with the sequence 5′-[…]-3′ (SEQ ID NO: 19)."}, "RecA [2]": {"molecular_target": "T1, RecA", "assay": "EMSA; Y-arm on OligoT/OligoU; longer oligos more efficient", "protocol": "as §1\nOligonucleotides used in this example. We use the OligoT/OligoU duplex as the target nucleic acid for these experiments. […]"}, "RecA [3]": {"molecular_target": "T1, RecA", "assay": "EMSA; OligoA/OligoB 70-mer duplex target; double D-loop with OligoI or LNA OligoN; ATP-gamma-S, Mg acetate, 37 C", "protocol": "as §1\nOligonucleotides used in this example. We employ the protocol described in Example 1 to form double D-loops between two DNA oligonucleotides and linear, duplex target DNA. The target duplex DNA is composed of two linear 70-mer oligonucleotides with sequence complementary to each other. The sequence of the first target strand, designated “OligoA”, is: 5′-[…]-3′ (SEQ ID NO: 1) and the sequence of the second target strand, designated “OligoB”, is: 3′-[…]-5′ (SEQ ID NO: 2). […]"}, "RecA [4]": {"molecular_target": "T1, RecA", "assay": "EMSA; OligoA/OligoB target, opposite strand; ATP-gamma-S, Mg2+, 37 C", "protocol": "as §1\nOligonucleotides used in this example. We use the OligoA/OligoB duplex as the target nucleic acid for these experiments. As the incoming oligonucleotide, we use either OligoC (SEQ ID NO: 3) or the complementary oligonucleotide which targets the opposite strand of the duplex target, designated “OligoD”, which has the sequence 5′-[…]-3′ (SEQ ID NO: 20)."}, "RecA [5]": {"molecular_target": "T1, RecA", "assay": "EMSA; matched Hyg(rep) 8 kb plasmid target with matched PNA or LNA annealing oligo", "details": "label: 5'-Cy5", "protocol": "The target in these experiments is one of two nonsupercoiled plasmids of about 8 kb, differing in a single nucleotide. The incoming oligonucleotides are 31-mer deoxyribonucleotides labeled at the 5′ terminus with either Cy5 or Cy3; the annealing oligonucleotides are 15-mer PNA oligonucleotides acetylated at the N terminus. Deproteinization is performed by adding SDS at either 37° C. or 45° C. to aliquots of the reaction mixture and incubating at the indicated temperature for various amounts of time, after which time the aliquots are removed and placed on dry ice.\nTwo gels are run separately, but scanned at the same time to allow a direct comparison. Results are shown in FIGS. 18A and 18B for the 37° C. deproteinization data only."}, "RecA [6]": {"molecular_target": "T1, RecA", "assay": "EMSA; beta-tubulin PCR product; RecA, incoming and LNA annealing oligos all required", "details": "label: 5'-biotin"}, "RecA [7]": {"molecular_target": "T1, RecA", "assay": "pulldown; Kan plasmid isolated from tet plasmid excess; PNA annealing oligo", "details": "label: 3'-BioTEG"}, "RecA [8]": {"molecular_target": "T1, RecA", "assay": "EMSA; Hyg- PCR target, LNA annealing oligos", "details": "label: 5'-Cy5", "description": "We also form double D-loops using a PCR product produced from a plasmid containing the a functional hygromycin resistance gene (Hyg⁺) or a hygromycin resistance gene containing a point mutation (Hyg⁻; FIG. 15; SEQ ID NO:______]) using primers AUR123f (5′-[…]-3′; SEQ ID NO: 45) and Hyg1560r (5′-[…]-3′; SEQ ID NO: 46). We follow the protocol described in this Example for the formation of double D-loops in the Kan⁻ PCR product using HygUDF/45G as the incoming oligonucleotide (5′-Cy™ 5-[…]-3′; SEQ ID NO: 47) and various annealing oligonucleotides as indicated in Table 2. We analyze the samples prepared by separating on a 2.5% agarose gel at 4° C. as described above."}, "RecA [9]": {"molecular_target": "T1, RecA", "assay": "EMSA; Y-arm on OligoT/OligoU duplex with Oligo5; almost quantitative; ATP-gamma-S, Mg2+, 37 C", "protocol": "as §1\nTo test the formation of Y-arms under our assay conditions, we use a different target duplex DNA composed of two linear 67-mer oligonucleotides with sequence complementary to each other. The sequence of the first target strand, designated “OligoT”, is: 5′-[…]-3′ (SEQ ID NO: 6) and the sequence of the second target strand, designated “OligoU”, is: 3′-[…]-5′ (SEQ ID NO: 7). We use two oligonucleotides complementary to the end of the OligoT/OligoU linear target duplex in these Y-arm experiments. […]"}}, "data": [{"binder": "GCAGACTTCTCCTCAGGAGTCAGGT (ssDNA)", "note": "[OligoW incoming 25-mer]", "values": [{"measurement": "binding result", "setting": "RecA [1]", "result": "binds"}]}, {"binder": "GCAGACTTCTCCTCAGGAGT (ssDNA)", "note": "[OligoV incoming 20-mer]", "values": [{"measurement": "binding result", "setting": "RecA [2]", "result": "binds"}]}, {"binder": "GCAGACTTCTCCTCAGGAGTCAGGTGCACCATGGTGTCTG (ssDNA)", "note": "[OligoZ incoming 40-mer]", "values": [{"measurement": "binding result", "setting": "RecA [1]", "result": "binds"}]}, {"binder": "AGGCTATTCGGCTACGACTGGGCACAACAG (ssDNA)", "note": "[OligoC incoming 30-mer]", "values": [{"measurement": "binding result", "setting": "RecA [3]", "result": "binds"}]}, {"binder": "CTGTTGTGCCCAGTCCTAGCCGAATAGCCT (ssDNA)", "note": "[OligoD incoming 30-mer]", "values": [{"measurement": "binding result", "setting": "RecA [4]", "result": "binds"}]}, {"binder": "GCAGACTTCTCCTCAGGAGTCAGGTGCACCATGGTGTCTGTTTGAG (ssDNA)", "note": "[Oligo1 incoming 46-mer]", "values": [{"measurement": "binding result", "setting": "RecA [1]", "result": "binds"}]}, {"binder": "GCAGACTTCTCCTCAGGAGTCAGGTGCACCATGGT (ssDNA)", "note": "[OligoY incoming 35-mer]", "values": [{"measurement": "binding result", "setting": "RecA [1]", "result": "binds"}]}, {"binder": "ATTTACCCGCAGGACCTATCCACGCCCTCCT (ssDNA)", "note": "[HYG(NT)D5Cy5/31C(rep)]", "values": [{"measurement": "binding result", "setting": "RecA [5]", "result": "binds"}]}, {"binder": "GGCCTGAAGATGTCGGCCACCTTCATCGGCA (ssDNA)", "note": "[betaTUBwt/31D/5'Bio]", "values": [{"measurement": "binding result", "setting": "RecA [6]", "result": "binds"}]}, {"binder": "GAGGCTATTCGGCTATGACTGGGCACAACAG (ssDNA)", "note": "[KAN/LDB/31t]", "values": [{"measurement": "binding result", "setting": "RecA [7]", "result": "binds"}]}, {"binder": "CGCAGCTATTTACCCGCAGGACCTATCCACGCCCTCCTACATCGA (ssDNA)", "note": "[HygUDF/45G incoming]", "values": [{"measurement": "binding result", "setting": "RecA [8]", "result": "binds"}]}, {"binder": "GCAGACTTCTCCTCAGGAGTCAGGTGCACC (ssDNA)", "note": "[OligoX incoming 30-mer]", "values": [{"measurement": "binding result", "setting": "RecA [9]", "result": "binds"}]}]}
